Among the targets are LNX1_2, Q8TBB1; HTRA1, Q92743; MAST2, Q6P0Q8; SNX27, Q96L92; FRMPD3, Q5JV73; FRMPD2_2, Q68DX3; SCRIB_2, Q14160; DLG1_2, Q12959; Inadl_3, Q8NI35; DLG4_2, P78352; PTPN3, P26045.
What all share (test): holdup assay
Holding throughout (set-up): key: below the threshold = too weak to quantify, mostly under pKd 3.1 to 4
Common to all, as to details: plain residues with an end cap or a label only (N-terminal biotin on a linker: ado-ado)

For a further assay, the target named is T1, NHERF3_4, Q5T2W1.
T1 sequence (Q5T2W1 373-468, limits assumed, looked up): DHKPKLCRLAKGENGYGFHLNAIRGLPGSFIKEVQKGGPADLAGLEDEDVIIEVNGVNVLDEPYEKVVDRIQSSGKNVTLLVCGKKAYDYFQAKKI

Another assay has as its target T2, PDZD7_3, Q9H5P4.
T2 sequence (Q9H5P4 857-944, limits assumed, looked up): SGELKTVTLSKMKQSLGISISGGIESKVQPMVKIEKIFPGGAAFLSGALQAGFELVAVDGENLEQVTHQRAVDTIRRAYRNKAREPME

For a further assay, the target named is T3, FRMPD1, Q5SYB0.
T3 sequence (Q5SYB0 52-145, limits assumed, looked up): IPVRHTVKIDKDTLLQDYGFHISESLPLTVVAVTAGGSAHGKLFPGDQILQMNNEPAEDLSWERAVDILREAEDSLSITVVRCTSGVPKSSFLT

The target of the next assay is T4, LIN7A, O14910.
T4 sequence (O14910 103-200, limits assumed, looked up): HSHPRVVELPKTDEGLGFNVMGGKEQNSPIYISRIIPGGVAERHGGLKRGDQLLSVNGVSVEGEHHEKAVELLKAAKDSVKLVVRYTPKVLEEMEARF

The next assay deals with T5, LIN7B, Q9HAP6.
T5 sequence (Q9HAP6 88-185, limits assumed, looked up): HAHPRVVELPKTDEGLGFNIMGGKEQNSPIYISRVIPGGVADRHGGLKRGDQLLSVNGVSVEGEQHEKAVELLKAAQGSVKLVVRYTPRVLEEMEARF

The next assay deals with T6, SYNJ2BP, P57105.
T6 sequence (P57105 8-110, limits assumed, looked up): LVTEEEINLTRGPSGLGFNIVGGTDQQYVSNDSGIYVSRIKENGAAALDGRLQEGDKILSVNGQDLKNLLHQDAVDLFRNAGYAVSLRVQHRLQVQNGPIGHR

The next assay deals with T7, MPDZ_10, O75970.
T7 sequence (O75970 1624-1722, limits assumed, looked up): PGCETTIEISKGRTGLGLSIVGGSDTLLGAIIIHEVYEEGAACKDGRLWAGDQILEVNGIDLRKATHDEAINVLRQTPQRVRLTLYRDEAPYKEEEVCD

Another assay concerns the target T8, LNX2_2, Q8N448.
T8 sequence (Q8N448 334-432, limits assumed, looked up): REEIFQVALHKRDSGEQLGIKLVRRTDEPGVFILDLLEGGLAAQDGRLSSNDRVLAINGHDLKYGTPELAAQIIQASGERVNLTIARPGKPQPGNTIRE

The target in a further assay is T9, TIAM2, Q8IVF5.
T9 sequence (Q8IVF5 885-986, limits assumed, looked up): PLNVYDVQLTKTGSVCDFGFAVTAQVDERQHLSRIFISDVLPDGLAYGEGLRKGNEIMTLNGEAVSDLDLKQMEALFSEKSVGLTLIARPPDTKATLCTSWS

For a further assay, the target named is T10, RAPGEF6, Q8TEU7.
T10 sequence (Q8TEU7 525-625, limits assumed, looked up): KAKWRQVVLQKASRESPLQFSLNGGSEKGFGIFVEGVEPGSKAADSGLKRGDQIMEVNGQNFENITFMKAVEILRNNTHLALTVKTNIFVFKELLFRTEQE

In a further assay the target is T11, SIPA1L2, Q9P2F8.
T11 sequence (Q9P2F8 945-1036, limits assumed, looked up): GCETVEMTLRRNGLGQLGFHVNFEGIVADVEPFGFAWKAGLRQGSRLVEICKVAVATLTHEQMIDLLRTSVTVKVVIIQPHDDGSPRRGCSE

In another assay the target is T12, DFNB31_1, Q9P202.
T12 sequence (Q9P202 135-233, limits assumed, looked up): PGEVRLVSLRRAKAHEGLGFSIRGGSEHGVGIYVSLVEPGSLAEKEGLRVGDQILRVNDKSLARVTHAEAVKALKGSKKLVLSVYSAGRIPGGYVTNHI

For another assay, the target named is T13, PDZRN3_1, Q9UPQ7.
T13 sequence (Q9UPQ7 244-349, limits assumed, looked up): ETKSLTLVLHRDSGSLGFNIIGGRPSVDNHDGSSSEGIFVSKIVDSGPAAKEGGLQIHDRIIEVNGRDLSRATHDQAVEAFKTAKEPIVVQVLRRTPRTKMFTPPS

Chain of DLG1_2, Q12959 (Q12959 314-412): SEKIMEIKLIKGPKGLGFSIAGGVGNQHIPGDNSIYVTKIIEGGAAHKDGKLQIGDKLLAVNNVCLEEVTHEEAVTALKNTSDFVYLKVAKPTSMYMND
Chain of LNX1_2, Q8TBB1 (Q8TBB1 371-470): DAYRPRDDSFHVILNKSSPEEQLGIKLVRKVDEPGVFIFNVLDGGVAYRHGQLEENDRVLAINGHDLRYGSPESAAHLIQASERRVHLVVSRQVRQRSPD
Chain of MAST2, Q6P0Q8 (Q6P0Q8 1099-1202): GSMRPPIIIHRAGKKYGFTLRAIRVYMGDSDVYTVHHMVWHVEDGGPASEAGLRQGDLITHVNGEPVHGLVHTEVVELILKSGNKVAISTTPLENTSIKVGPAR
Chain of PTPN3, P26045 (P26045 505-587): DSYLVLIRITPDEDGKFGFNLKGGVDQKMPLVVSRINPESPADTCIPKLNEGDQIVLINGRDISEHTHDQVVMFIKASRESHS
Chain of FRMPD2_2, Q68DX3 (Q68DX3 944-1038): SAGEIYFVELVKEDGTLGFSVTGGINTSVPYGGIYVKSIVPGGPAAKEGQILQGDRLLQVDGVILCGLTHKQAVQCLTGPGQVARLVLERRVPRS
Chain of SCRIB_2, Q14160 (Q14160 857-960): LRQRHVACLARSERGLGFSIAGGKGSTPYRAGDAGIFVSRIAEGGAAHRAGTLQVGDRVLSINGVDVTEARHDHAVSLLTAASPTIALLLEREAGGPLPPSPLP
Chain of DLG4_2, P78352 (P78352 155-259): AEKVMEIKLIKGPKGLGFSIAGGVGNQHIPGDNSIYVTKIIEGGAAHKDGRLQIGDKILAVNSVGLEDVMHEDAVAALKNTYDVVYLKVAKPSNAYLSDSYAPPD
Chain of FRMPD3, Q5JV73 (Q5JV73 12-100): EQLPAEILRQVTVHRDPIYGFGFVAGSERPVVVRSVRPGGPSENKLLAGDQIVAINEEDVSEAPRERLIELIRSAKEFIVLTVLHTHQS
Chain of HTRA1, Q92743 (Q92743 360-477): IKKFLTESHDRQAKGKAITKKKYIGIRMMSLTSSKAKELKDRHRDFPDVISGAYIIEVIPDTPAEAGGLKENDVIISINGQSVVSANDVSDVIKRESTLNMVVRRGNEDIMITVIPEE
Chain of Inadl_3, Q8NI35 (Q8NI35 359-469): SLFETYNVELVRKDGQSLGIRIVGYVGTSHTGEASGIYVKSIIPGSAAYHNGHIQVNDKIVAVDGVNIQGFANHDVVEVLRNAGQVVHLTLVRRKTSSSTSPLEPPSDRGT

In general, pKd refers to the Kd on a negative log10 scale, so that one unit is a factor of ten. LGHTPFVDEL [UQCRC2, P22695]: the pKd entry was “below the threshold” in the assay with LNX1_2, Q8TBB1; 3.97 with HTRA1, Q92743; “below the threshold” in the assay with NHERF3_4, Q5T2W1; “below the threshold” in the assay with PDZD7_3, Q9H5P4; 4.56 with MAST2, Q6P0Q8; “below the threshold” with FRMPD1, Q5SYB0. Further, the pKd with LIN7A, O14910 is 3.53; in the assay with SNX27, Q96L92, 3.99; with LIN7B, Q9HAP6 it was “below the threshold”; with FRMPD3, Q5JV73, “below the threshold”; with FRMPD2_2, Q68DX3, “below the threshold”; with SYNJ2BP, P57105 it was 4. Further, the pKd result in the assay with SCRIB_2, Q14160 is reported as “below the threshold”; in the assay with DLG1_2, Q12959, “below the threshold”; with MPDZ_10, O75970 it was “below the threshold”; in the assay with LNX2_2, Q8N448 it was “below the threshold”; with TIAM2, Q8IVF5 it was “below the threshold”; in the assay with RAPGEF6, Q8TEU7, “below the threshold”. The pKd with Inadl_3, Q8NI35 is 3.59; with SIPA1L2, Q9P2F8, “below the threshold”; with DFNB31_1, Q9P202 it was 3.5; with PDZRN3_1, Q9UPQ7, “below the threshold”; with DLG4_2, P78352, “below the threshold”; with PTPN3, P26045, 4.1.
For YPKQMPLSQV [FZD8, Q9H461], the pKd result in the assay with LNX1_2, Q8TBB1 was “below the threshold”; in the assay with HTRA1, Q92743 it was “below the threshold”; with NHERF3_4, Q5T2W1, “below the threshold”; with PDZD7_3, Q9H5P4, 4.17; with MAST2, Q6P0Q8 it was 4.29; with FRMPD1, Q5SYB0, “below the threshold”. The pKd result with LIN7A, O14910 was “below the threshold”; with SNX27, Q96L92, 3.97; with LIN7B, Q9HAP6 it was “below the threshold”; with FRMPD3, Q5JV73, “below the threshold”; with FRMPD2_2, Q68DX3 it was “below the threshold”; in the assay with SYNJ2BP, P57105, “below the threshold”. Besides, the pKd entry with SCRIB_2, Q14160 is “below the threshold”; with DLG1_2, Q12959, “below the threshold”; with MPDZ_10, O75970, 3.7; with LNX2_2, Q8N448, “below the threshold”; with TIAM2, Q8IVF5, “below the threshold”; with RAPGEF6, Q8TEU7, “below the threshold”. For the same molecule, the pKd result with Inadl_3, Q8NI35 is “below the threshold”; with SIPA1L2, Q9P2F8 it was “below the threshold”; in the assay with DFNB31_1, Q9P202, 3.59; in the assay with PDZRN3_1, Q9UPQ7 it was “below the threshold”; with DLG4_2, P78352, “below the threshold”; with PTPN3, P26045, “below the threshold”.
Turning to QYPGSPDSWV [PKP4, Q99569], the pKd with LNX1_2, Q8TBB1 is 3.78; with HTRA1, Q92743, 4.78; with NHERF3_4, Q5T2W1, “below the threshold”; with PDZD7_3, Q9H5P4, 4.11; in the assay with MAST2, Q6P0Q8, 4.09; in the assay with FRMPD1, Q5SYB0, “below the threshold”. The pKd result with LIN7A, O14910 is “below the threshold”; with SNX27, Q96L92, 4.72; with LIN7B, Q9HAP6, “below the threshold”; in the assay with FRMPD3, Q5JV73, 3.47; with FRMPD2_2, Q68DX3, 4.34; in the assay with SYNJ2BP, P57105 it was 4.94. The pKd was 4.82 with SCRIB_2, Q14160; 4.68 with DLG1_2, Q12959; 3.7 with MPDZ_10, O75970; 4.69 with LNX2_2, Q8N448; “below the threshold” with TIAM2, Q8IVF5; “below the threshold” with RAPGEF6, Q8TEU7. Moreover, the pKd is 3.63 with Inadl_3, Q8NI35; “below the threshold” in the assay with SIPA1L2, Q9P2F8; 4.28 with DFNB31_1, Q9P202; 3.77 with PDZRN3_1, Q9UPQ7; 4.62 with DLG4_2, P78352; 4.96 in the assay with PTPN3, P26045.
On to DFRHKSSFVI [JAM3, Q9BX67], for which the pKd entry with LNX1_2, Q8TBB1 was “below the threshold”; in the assay with HTRA1, Q92743, 4.64; with NHERF3_4, Q5T2W1, “below the threshold”; with PDZD7_3, Q9H5P4, 4.85; with MAST2, Q6P0Q8 it was 3.76; with FRMPD1, Q5SYB0, “below the threshold”. The pKd result with LIN7A, O14910 is “below the threshold”; in the assay with SNX27, Q96L92, “below the threshold”; with LIN7B, Q9HAP6, 3.82; with FRMPD3, Q5JV73, “below the threshold”; with FRMPD2_2, Q68DX3 it was “below the threshold”; in the assay with SYNJ2BP, P57105, “below the threshold”. Besides, the pKd result with SCRIB_2, Q14160 was “below the threshold”; in the assay with DLG1_2, Q12959 it was “below the threshold”; in the assay with MPDZ_10, O75970, “below the threshold”; with LNX2_2, Q8N448, 4.15; with TIAM2, Q8IVF5, 4.02; with RAPGEF6, Q8TEU7 it was “below the threshold”. Also, the pKd is 4.26 in the assay with Inadl_3, Q8NI35; “below the threshold” with SIPA1L2, Q9P2F8; “below the threshold” with DFNB31_1, Q9P202; “below the threshold” in the assay with PDZRN3_1, Q9UPQ7; “below the threshold” in the assay with DLG4_2, P78352; 3.84 with PTPN3, P26045.

These data come from PMC9482650, “Quantitative fragmentomics allow affinity mapping of interactomes” (Nature Communications, 2022).
